B1: Intersectin-1, residues 909 to 971; numbered along this chain, Q15811 (parent)
chain: QGEKVEGLQAQALYPWRAKKDNHLNFNKNDVITVLEQQDMWWFGEVQGQKGWFPKSYVKLISG

Variants of: B1
Experiment: abundance fitness (aPCA) (normalised: wild type 0, dead -1); higher = more abundant; growth selection in yeast, the domain comes from the species named
Settings: Homo sapiens

Abundance fitness, by site and new letter:
W16: P -0.691 | F -0.092 | V -0.357 | Y -0.32 | E -0.888 | R -0.115 | Q -0.396 | I 0.126 | T -0.646 | C -0.157 | K -0.427 | L -0.046 | S -0.053 | M -0.281 | G -0.744 | N -0.199 | H -0.051
L8: Q 0.05 | S -0.117 | R -0.087 | E -0.003 | T -0.039 | I -0.136 | P -0.345 | H -0.361 | D -0.236 | G -0.048 | W -0.152 | A 0.043 | V 0.14 | Y 0.112 | M 0.094 | K -0.136
K19: L -0.045 | N -0.055 | C -0.048 | V 0.021 | F 0.032 | T 0.033 | E 0 | P -0.139 | Q 0.069 | I -0.028 | S 0.008 | Y -0.078 | A -0.018 | D 0.026 | H -0.114
Q9: H 0.011 | A -0.07 | K -0.015 | L -0.133 | W -0.109 | Y -0.047 | V -0.093 | N 0.012 | T -0.076 | C -0.109 | M 0.095 | P -0.17 | S -0.083 | E 0.008 | G -0.331 | I -0.172 | F -0.159
L13: S -0.412 | E -0.267 | Q -0.2 | T -0.233 | C -0.268 | G -0.709 | A -0.271 | R -0.126 | N -0.024 | V 0.091 | M -0.204 | I -0.393 | D -0.158
Y14: F -0.725 | S -0.233 | P -0.585 | L 0.009 | Q -0.129 | D -0.104 | V 0.011 | E 0.023 | T -0.191 | R -0.052 | I -0.058 | A -0.09 | H -0.103 | G -0.159 | C -0.511 | K -0.098
D21: N -0.265 | P -0.005 | S -0.071 | R -0.125 | V 0.007 | H 0.01 | A 0 | F -0.131 | M -0.434 | W -0.112 | T -0.03 | L -0.012 | C -0.167 | Q 0.145 | Y -0.102 | G -0.068 | E -0.096
E6: V -0.122 | F -0.178 | S -0.16 | Y -0.119 | P 0.074 | L -0.1 | D -0.221 | C -0.174 | N -0.079 | K -0.306 | T -0.215 | I -0.29 | A -0.139 | M -0.069 | R -0.108
V5: C -0.488 | Q -0.029 | A -0.008 | L -0.364 | D 0.126 | H -0.657 | P -0.07 | T -0.237 | M -0.073 | G -0.155 | W -0.106 | S -0.115 | I -0.151 | E -0.126
K4: H -0.168 | A -0.159 | Q -0.39 | C 0.207 | L -0.248 | Y -0.039 | R -0.126 | E -0.11 | F -0.193 | V -0.168 | G -0.588 | P -0.29 | S -0.014 | N -0.026 | W -0.08
H23: C -0.492 | W -0.04 | P -0.596 | L -0.114 | V -0.172 | S -0.316 | Q -0.135 | F -0.123 | Y -0.171 | I -0.551 | T -0.207 | A -0.245 | G -0.164 | M -0.231 | R -0.254
G2: N -0.175 | M 0.113 | P -0.423 | R -0.38 | L -0.386 | K 0.076 | S -0.018 | T -0.051
E3: R -0.074 | H -0.088 | V -0.293 | S -0.319 | M -0.312 | K -0.079 | L -0.268 | I 0.237 | A -0.293 | Q 0.026 | T -0.305 | F -0.169 | G -0.165 | W -0.332 | C -0.153 | N 0.02 | D -0.021
N25: G -0.081 | A -0.064 | H 0.009 | C -0.057 | E -0.08 | D -0.066 | F -0.491
P15: I -0.127 | A 0.017 | Q 0.052 | M 0.114 | F -0.224 | Y -0.269 | E 0.054 | T -0.059 | G 0.115 | R -0.018 | C -0.059 | N 0.087 | D -0.156 | K -0.14 | S 0.011 | L -0.338 | W -0.746
A12: T -0.841 | C -0.474 | S -0.577 | W -1.02 | R -0.997 | K -0.773 | G -0.404
A18: T -0.065 | Q -0.494 | N -0.086 | V -0.215 | C -0.189 | L -0.274 | E -0.234 | M -0.09 | K -0.059 | S -0.058 | Y -0.365 | G 0.043 | D -0.109 | P -0.034 | W -0.362 | R -0.267
A10: C -0.174 | E -0.821 | W -0.183 | G -0.212 | S -0.506 | V 0.095 | Y 0.003 | K -0.152 | M -0.223 | L -0.272 | T -0.746 | R -0.807
N22: T 0.003 | C 0.051 | K 0.022 | P 0.037 | V -0.313 | G -0.018 | R -0.142 | M -0.4 | S 0.036 | A -0.118 | Q 0.015 | H -0.301 | L -0.279 | W -0.172
Q11: G -0.498 | D -0.728 | L -0.247 | K -0.142 | W -0.098 | R -0.067 | Y -0.09 | E -0.33 | H -0.131 | S -0.066 | C -0.459 | M -0.119 | V -0.364 | T -0.098 | A -0.239 | P -1.03
L24: C -0.199 | K -1.14 | Q -0.694 | W -0.778 | T -0.694 | N -0.563 | P -0.383 | A -0.436 | E -0.591 | M -0.611 | D -1.26 | I -0.359 | S -0.867 | F -0.466
R17: D -0.163 | F -0.141 | L -0.021 | A -0.19 | Q -0.066 | G -0.306 | K -0.359 | S -0.043 | T -0.097 | P -0.293 | H -0.108 | V 0.061 | W -0.24 | E -0.049 | M -0.081
K20: Y -0.15 | A 0.001 | S -0.011 | M -0.06 | D -0.097 | I -0.092 | F -0.101 | H -0.133 | P -0.374 | R -0.078 | T -0.079 | Q -0.171 | L -0.176 | N 0.053 | W -0.156 | V -0.117
G7: Q 0.164 | S 0.006 | R -0.227 | V 0.076 | D -0.095

— the Human Domainome abundance scans (Beltran et al. 2025)
